Measured values from patent US6693079.
Positions of bridges follow the written chain, without caps; N, C: chain ends. No end group written: not given here.

Key:
[1] = target: T1, recombinant human IGFBP-3 (human, UniProt P17936 28-291); assay: BIAcore competition assay
T1 construct: also called rhIGFBP-3; biotinylated IGFBP-3

[2] = target: T2, recombinant human IGFBP-1 (human, UniProt P08833 26-259); assay: ELISA competition, C-terminal bp1-01 variants
T2 construct: Plate-coated, biotinylated or coupled to a dextran chip, depending on the assay; also called rhIGFBP-1; biotinylated IGFBP-1
T2 sequence (looked up): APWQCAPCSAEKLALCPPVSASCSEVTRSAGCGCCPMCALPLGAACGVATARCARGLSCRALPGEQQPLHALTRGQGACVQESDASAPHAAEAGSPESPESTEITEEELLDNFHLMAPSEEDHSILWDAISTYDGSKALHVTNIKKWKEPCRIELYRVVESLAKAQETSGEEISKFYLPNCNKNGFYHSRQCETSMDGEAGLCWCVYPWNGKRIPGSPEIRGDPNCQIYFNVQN

[3] = target: T2, recombinant human IGFBP-1; assay: ELISA plate assay or BIAcore competition, IGF-I inhibition
[4] = target: T2, recombinant human IGFBP-1; assay: BIAcore competition assay or ELISA plate assay

T1 sequence (P17936 28-291 limits assumed): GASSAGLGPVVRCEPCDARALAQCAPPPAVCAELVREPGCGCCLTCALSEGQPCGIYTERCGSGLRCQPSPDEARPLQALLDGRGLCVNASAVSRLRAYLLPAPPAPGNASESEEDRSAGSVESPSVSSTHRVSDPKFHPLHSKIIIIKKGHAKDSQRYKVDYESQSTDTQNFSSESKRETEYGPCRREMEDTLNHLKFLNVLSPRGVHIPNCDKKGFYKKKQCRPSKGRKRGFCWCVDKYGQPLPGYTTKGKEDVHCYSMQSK

## EEVCWPVAEWYLCN (bp3-01-ox variant) [bp3-28]
[1]
  binding result: binds

## EVCWPVAEWYLCN (bp3-01-ox variant) [bp3-27]
[1]
  binding result: binds

## CWPVAEWYLCN [bp3-25 (SEQ ID NO:106)]
[1]
  binding result: binds

## CRAGPLQWLCEKAA (C-terminal variant of bp1-01) [bp1-18]
[2]
  binding result: binds

B1: bp1-10 (peptide)
peptide: CRKGPLQWLCELYF
notes: Peptide from g8 bp1-01 secondary libraries
[3]
  binding result: binds

B2: bp1-11 (peptide)
peptide: CRKGPLQWLCEKYF
notes: as for B1
[3]
  binding result: binds

B3: bp1-15 (peptide)
peptide: CAAGPLQWLCEKYF
notes: as for B1
[3]
  binding result: binds

B4: bp68 (peptide)
peptide: CRAGPLQWLCEKFF
notes: as for B1
[3]
  binding result: binds

B5: bp1028 (peptide)
peptide: CRAGPLQWLCERFF
notes: as for B1
[3]
  binding result: binds

B6: bp1029 (peptide)
peptide: CREGPLQWLCERFF
notes: as for B1
[3]
  binding result: binds

B7: bp1-12 (peptide)
peptide: CKEGPLQWLCEKYF
notes: as for B1
[3]
  binding result: binds

B8: bp1-13 (peptide)
peptide: CKEGPLLWLCEKYF
notes: as for B1
[3]
  binding result: binds

B9: bp1027 (peptide)
peptide: CKAGPLLWLCERFF
notes: as for B1
[3]
  binding result: binds

B10: bp1030 (peptide)
peptide: CKEGPLLWLCERFF
notes: as for B1
[3]
  binding result: binds

B11: bp1-19 (peptide)
peptide: SEMVCRAGPLQWLCEIYF-NH2
modifications: disulfide 5-14 (inferred)
notes: Peptide from g3 bp1-01 secondary libraries
[4]
  binding result: binds

B12: bp1-20 (peptide)
peptide: EARVCRAGPLQWLCEKYF-NH2
modifications: disulfide 5-14 (inferred)
notes: as for B11
[4]
  binding result: binds

B13: bp1-21A (peptide)
peptide: SEVGCRAGPLQWLCEKYFSTY-NH2
modifications: disulfide 5-14 (inferred)
notes: as for B11
[4]
  binding result: binds

B14: bp1-21B (peptide)
peptide: CRAGPLQWLCEKYFSTY-NH2
modifications: disulfide 1-10 (inferred)
notes: as for B11
[4]
  binding result: binds

## ASEEVCWPVAEWYLCNMWGR [4d3.3 (peptide)]
[1]
  binding result: binds

## ASEEVCWPVAEWYLCN (bp3-01-ox variant) [bp3-30]
[1]
  binding result: binds

## GPETCWPVAEWYLCN (bp3-01-ox variant) [bp3-41]
[1]
  binding result: binds
